In patent publication US6465423 (CENTRAL SYDNEY AREA HEALTH SERVICE, dated 2002):

B1: acid-labile sub-unit (ALS) of insulin like growth factor binding protein complex (other, human, UniProt P35858 28-605, looked up)
chain: ADPGTPGEAEGPACPAACVCSYDDDADELSVFCSSRNLTRLPDGVPGGTQALWLDGNNLSSVPPAAFQNLSSLGFLNLQGGQLGSLEPQALLGLENLCHLHLERNQLRSLALGTFAHTPALASLGLSNNRLSRLEDGLFEGLGSLWDLNLGWNSLAVLPDAAFRGLGSLRELVLAGNRLAYLQPALFSGLAELRELDLSRNALRAIKANVFVQLPRLQKLYLDRNLIAAVAPGAFLGLKALRWLDLSHNRVAGLLEDTFPGLLGLRVLRLSHNAIASLRPRTFKDLHFLEELQLGHNRIRQLAERSFEGLGQLEVLTLDHNQLQEVKAGAFLGLTNVAVMNLSGNCLRNLPEQVFRGLGKLHSLHLEGSCLGRIRPHTFTGLSGLRRLFLKDNGLVGIEEQSLWGLAELLELDLTSNQLTHLPHRLFQGLGKLEYLLLSRNRLAELPADALGPLQRAFWLDVSHNRLEALPNSLLAPLGRLRYLSLRNNSLRTFTPQPPGLERLWLEGNPWDCGCPLKALRDFALQNPSAVPRFVQAICEGDDCQPPAYTYNNITCASPPEVVGLDLRDLSEAHFAPC
modifications: glycoprotein (N-linked carbohydrate); 125I-iodinated (chloramine-T) where used as tracer
notes: mature; 84/86 kDa doublet on SDS-PAGE; In some experiments partially pure ALS or serum fractions (peak B) were used; also called ALS tracer
B2: 28K IGF-binding protein BP-28 (other, human, UniProt P08833 26-259, looked up)
chain: APWQCAPCSAEKLALCPPVSASCSEVTRSAGCGCCPMCALPLGAACGVATARCARGLSCRALPGEQQPLHALTRGQGACVQESDASAPHAAEAGSPESPESTEITEEELLDNFHLMAPSEEDHSILWDAISTYDGSKALHVTNIKKWKEPCRIELYRVVESLAKAQETSGEEISKFYLPNCNKNGFYHSRQCETSMDGEAGLCWCVYPWNGKRIPGSPEIRGDPNCQIYFNVQN
notes: mature; also called purified amniotic fluid BP-28

Experiments:
[1] = biological target: T1, Cross-linked BP-53-IGF-I tracer (covalent complex of BP-53 with [125I]IGF-I) (human, UniProt P17936 28-291; P05019 49-118, 125I-iodinated; cross-linked to BP-53 with disuccinimidyl suberate; glycoprotein; cross-linked to IGF-I with disuccinimidyl suberate); experiment: routine ALS assay, Superose-12, no serum added
T1 construct: mature; About 60K; Used as tracer in the routine ALS assay; also called covalent BP-53-IGF-I complex; cross-linked tracer
T1 sequence (P17936 28-291, chain 1 of 2): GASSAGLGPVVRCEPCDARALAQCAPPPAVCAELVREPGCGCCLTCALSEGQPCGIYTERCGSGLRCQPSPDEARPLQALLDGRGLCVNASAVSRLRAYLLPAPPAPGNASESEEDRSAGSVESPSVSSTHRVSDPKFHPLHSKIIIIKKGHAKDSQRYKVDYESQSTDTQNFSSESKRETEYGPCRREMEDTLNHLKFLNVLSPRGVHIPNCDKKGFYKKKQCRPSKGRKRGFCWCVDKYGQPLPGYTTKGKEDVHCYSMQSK
T1 sequence (P05019 49-118, chain 2 of 2): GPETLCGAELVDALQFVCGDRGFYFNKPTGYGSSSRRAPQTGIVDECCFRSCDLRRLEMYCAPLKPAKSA
Procedure: The routine assay for ALS activity was developed, based on the conversion of a covalent BP-53-IGF-I complex of approximately 60K to 150K form in the presence of ALS.
(§1) Samples to be tested for ALS activity were diluted to 200 μL in buffer containing 50 mmol/L sodium phosphate, 0.15 mol/L NaCl, and 0.2 g/L sodium azide, pH 6.5, with 10 g/L bovine albumin. Cross-linked BP-53-IGF-I tracer (~80,000 cpm; 4 ng) was added in 50 μL of the same buffer. After 25–30 min. of incubation at 22° C., 200 μL of the mixture was applied using a V-7 injector valve (Pharmacia) to a Superose-12 gel permeation column eluting at 1.0 mL/min (~2 megapascal pressure) in assay buffer without albumin. The column was calibrated with rabbit immunoglobulin G (Pentex; ~150K), which eluted mainly in fractions 22~24, peaking in fraction 23; BP-53-IGF-I tracer (~60K), which eluted mainly in fractions 25–27, peaking in fraction 26; IGF-I tracer bound to BP-28 (~35K, peaking in fraction 28); and IGF-I tracer (7.5K, peaking in fraction 33). Plotted as log (molecular mass) vs. elution volume, these four markers yielded a linear calibration curve (not shown). As a quantitative index of ALS activity (i.e. the degree of conversion of BP-53 to the 150K complex), the total radioactivity in fractions 22–24 was divided by that in fractions 25–27 to give a 150K/60K ratio. The values of this ratio typically varied between 0.1 and 2.0. […]

[2] = biological target: B1; experiment: competition with cross-linked BP-53-IGF-I tracer in the routine ALS assay
Procedure: as §1, with “2.0. The coefficient of variation of the 150K/60K ratio, based on analysis of variance of eight duplicate measurements covering a wide range of values, was 3.2%.” for “2.0.”

150K/60K ratio [1]	binding result [2]	Binder
~1		B1
	no binding (tested: 0.8 µg/mL)	B2
